Measurements published in patent US20230055408A1 (JIANGSU HENGRUI MEDICINE, published 2023).

Key:
[1] = biological target: T1, monkey CEA expressed on CHO cell surface (cynomolgus monkey); assay: FACS, cynoCEA-CHO cells
T1 construct: also called cynoCEA-CHO; monkey CEA proteins on the cell surface
T1 chain: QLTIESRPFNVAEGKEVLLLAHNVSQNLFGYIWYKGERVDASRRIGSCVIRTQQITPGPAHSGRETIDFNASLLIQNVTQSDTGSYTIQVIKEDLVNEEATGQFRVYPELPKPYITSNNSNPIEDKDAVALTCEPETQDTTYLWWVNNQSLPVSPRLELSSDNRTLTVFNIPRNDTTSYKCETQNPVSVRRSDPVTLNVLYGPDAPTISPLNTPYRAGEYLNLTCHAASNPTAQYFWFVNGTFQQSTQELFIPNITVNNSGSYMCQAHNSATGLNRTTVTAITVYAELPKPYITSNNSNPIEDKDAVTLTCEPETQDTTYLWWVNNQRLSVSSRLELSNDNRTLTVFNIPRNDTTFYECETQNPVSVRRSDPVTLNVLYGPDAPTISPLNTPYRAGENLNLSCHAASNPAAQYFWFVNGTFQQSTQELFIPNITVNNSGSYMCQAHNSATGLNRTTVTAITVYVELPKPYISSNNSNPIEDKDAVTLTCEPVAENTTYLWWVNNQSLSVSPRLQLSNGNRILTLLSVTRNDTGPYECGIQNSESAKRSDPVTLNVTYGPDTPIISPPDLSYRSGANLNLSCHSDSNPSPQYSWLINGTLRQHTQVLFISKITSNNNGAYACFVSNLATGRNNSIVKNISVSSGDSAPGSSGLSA
Experimental: (§1) In order to detect the binding of the antibody to the CEA protein on the cell surface, the binding activity of the antibody was determined by FACS using cells expressing CEA on the cell surface. Cells were harvested and centrifuged at 400 g at 4° C. for 5 min. Pre-cooled PBS containing FBS at final concentration 10% was added, and the mixture was centrifuged at 400 g at 4° C. for 5 min; the procedures were repeated twice. The cells were seeded into a 96-well plate at 10⁵ cells/well, and 100 μL of gradient diluted antibody solution was added to each well. The plate was incubated at 4° C. for 60 min and centrifuged, and the supernatant was removed. 250 μL of pre-cooled PBS containing FBS at final concentration 10% was added to each well to resuspend the cells, and the suspension was centrifuged at 400 g at 4° C. for 5 min, followed by the removal of the supernatant; the procedures were repeated twice. 50 μL of 1:200 diluted secondary antibody Alexa Fluor@488 goat anti-human IgG (H+L) (Lifetechologies, Cat #A11013) was added. […] 250 μL of pre-cooled PBS containing FBS at final concentration 10% was added to each cell to resuspend the cells, and the suspension was centrifuged at 400 g at 4° C. for 5 min; the procedures were repeated twice. 100 μL of pre-cooled PBS was added to each well to resuspend the cells. The plate was analyzed by a flow cytometer (BD, FACSverse) for fluorescence signal values.

[2] = biological target: T2, human CEA protein on the cell surface (human, UniProt P06731 35-685); assay: FACS, MKN45 cells
T2 construct: whole, on cells; also called CEACAM-5; CD66e
T2 sequence (looked up): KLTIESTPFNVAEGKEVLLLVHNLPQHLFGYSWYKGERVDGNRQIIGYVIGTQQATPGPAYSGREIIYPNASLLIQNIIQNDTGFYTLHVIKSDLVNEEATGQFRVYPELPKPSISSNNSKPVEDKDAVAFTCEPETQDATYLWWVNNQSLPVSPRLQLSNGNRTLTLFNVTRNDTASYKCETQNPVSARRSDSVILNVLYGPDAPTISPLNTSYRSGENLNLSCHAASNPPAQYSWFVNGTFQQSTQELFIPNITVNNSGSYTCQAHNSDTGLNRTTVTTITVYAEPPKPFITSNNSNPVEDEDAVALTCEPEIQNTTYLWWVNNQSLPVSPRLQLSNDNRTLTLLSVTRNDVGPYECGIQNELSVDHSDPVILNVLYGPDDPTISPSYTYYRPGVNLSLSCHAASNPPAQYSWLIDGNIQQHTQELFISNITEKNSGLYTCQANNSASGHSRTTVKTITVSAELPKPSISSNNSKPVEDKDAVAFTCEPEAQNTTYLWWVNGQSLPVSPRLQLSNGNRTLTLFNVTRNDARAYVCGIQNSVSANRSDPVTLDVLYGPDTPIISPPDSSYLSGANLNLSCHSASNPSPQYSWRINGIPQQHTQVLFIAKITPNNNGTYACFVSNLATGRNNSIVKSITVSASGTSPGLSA
Experimental: as §1

B1: Hu63-5 (antibody, human IgG1, kappa, V domains shown)
VH: EVQLVQSGAEVKKPGASVKVSCKASGYTFTDFYMNWVRQAPGQGLEWMGDIFPKNGNTDYNRKFKDRVTLTVDKSTSTVYMELSSLRSEDTAVYYCARSGYGNYVFDYWGQGTLVTVSS
VL: DVQMTQSPSSLSASVGDRVTITCRTSQDINIYLNWYQQKPGKAPKLLIYYRSGLLSGVPSRFSGSGSGTDYTLTISSLQPEDFATYYCQQGNTLPPTFGGGTKVEIKR
EC50 [1]: 2.14 nM
EC50 [2]: 3.7 nM

B2: Hu63-2 (antibody, human IgG1, kappa, V domains shown)
VH: EVQLVQSGAEVKKPGASVKVSCKASGYTFTDFYMNWVRQAPGQGLEWMGDIFPKNGNTDYNRKFKDRVTMTRDTSTSTVYMELSSLRSEDTAVYYCARSGYGNYVFDYWGQGTLVTVSS
VL: DVQMTQSPSSLSASVGDRVTITCRTSQDINIYLNWYQQKPGKAPKLLIYYRSGLLSGVPSRFSGSGSGTDYTLTISSLQPEDFATYYCQQGNTLPPTFGGGTKVEIKR
EC50 [2]: 3.73 nM

B3: Hu63-11 (antibody, human IgG1, kappa, V domains shown)
VH: EVQLVQSGAEVKKPGASVKVSCKASGYTFTDFYMNWVRQAPGQGLEWIGDIFPKNGNTDYNRKFKDKATLTVDKSTSTVYMEFRSLRSEDTAVYYCARSGYGNYVFDYWGQGTLVTVSS
VL: DVQMTQSPSSLSASVGDRVTITCRTSQDINIYLNWYQQKPGKAPKLLIYYRSGLLSGVPSRFSGSGSGTDYTLTISSLQPEDFATYYCQQGNTLPPTFGGGTKVEIKR
EC50 [1]: 2.29 nM
EC50 [2]: 4.35 nM

B4: Hu63-12 (antibody, human IgG1, kappa, V domains shown)
VH: EVQLVQSGAEVKKPGASVKVSCKASGYTFTDFYMNWVRQAPGQGLEWIGDIFPKNGNTDYNRKFKDKATLTVDKSTSTVYMEFRSLRSEDTAVYYCARSGYGNYVFDYWGQGTLVTVSS
VL: DVQMTQSPSSLSASVGDRVTITCRTSQDINIYLNWYQQKPGGAVKLLIYYRSGLLSGVPSRFSGSGSGTDYTLTISSLQPEDFATYYCQQGNTLPPTFGGGTKVEIKR
EC50 [1]: 2.23 nM
EC50 [2]: 4.04 nM

B5: Hu63-6 (antibody, human IgG1, kappa, V domains shown)
VH: EVQLVQSGAEVKKPGASVKVSCKASGYTFTDFYMNWVRQAPGQGLEWMGDIFPKNGNTDYNRKFKDRVTLTVDKSTSTVYMELSSLRSEDTAVYYCARSGYGNYVFDYWGQGTLVTVSS
VL: DVQMTQSPSSLSASVGDRVTITCRTSQDINIYLNWYQQKPGGAVKLLIYYRSGLLSGVPSRFSGSGSGTDYTLTISSLQPEDFATYYCQQGNTLPPTFGGGTKVEIKR
EC50 [1]: 2.88 nM
EC50 [2]: 3.71 nM

B6: Hu63-3 (antibody, human IgG1, kappa, V domains shown)
VH: EVQLVQSGAEVKKPGASVKVSCKASGYTFTDFYMNWVRQAPGQGLEWMGDIFPKNGNTDYNRKFKDRVTMTRDTSTSTVYMELSSLRSEDTAVYYCARSGYGNYVFDYWGQGTLVTVSS
VL: DVQMTQSPSSLSASVGDRVTITCRTSQDINIYLNWYQQKPGGAVKLLIYYRSGLLSGVPSRFSGSGSGTDYTLTISSLQPEDFATYYCQQGNTLPPTFGGGTKVEIKR
EC50 [1]: 2.01 nM
EC50 [2]: 3.56 nM

B7: Hu63-10 (antibody, human IgG1, kappa, V domains shown)
VH: EVQLVQSGAEVKKPGASVKVSCKASGYTFTDFYMNWVRQAPGQGLEWIGDIFPKNGNTDYNRKFKDKATLTVDKSTSTVYMEFRSLRSEDTAVYYCARSGYGNYVFDYWGQGTLVTVSS
VL: DIQMTQSPSSLSASVGDRVTITCRTSQDINIYLNWYQQKPGKAPKLLIYYRSGLLSGVPSRFSGSGSGTDFTLTISSLQPEDFATYYCQQGNTLPPTFGGGTKVEIKR
EC50 [1]: 1.88 nM
EC50 [2]: 4.95 nM

B8: Hu63-9 (antibody, human IgG1, kappa, V domains shown)
VH: EVQLVQSGAEVKKPGASVKVSCKASGYTFTDFYMNWVRQAPGQGLEWIGDIFPKNGNTDYNRKFKDRATLTVDKSTSTVYMEFSSLRSEDTAVYYCARSGYGNYVFDYWGQGTLVTVSS
VL: DVQMTQSPSSLSASVGDRVTITCRTSQDINIYLNWYQQKPGGAVKLLIYYRSGLLSGVPSRFSGSGSGTDYTLTISSLQPEDFATYYCQQGNTLPPTFGGGTKVEIKR
EC50 [1]: 2.47 nM
EC50 [2]: 4.87 nM

B9: Hu63-4 (antibody, human IgG1, kappa, V domains shown)
VH: EVQLVQSGAEVKKPGASVKVSCKASGYTFTDFYMNWVRQAPGQGLEWMGDIFPKNGNTDYNRKFKDRVTLTVDKSTSTVYMELSSLRSEDTAVYYCARSGYGNYVFDYWGQGTLVTVSS
VL: DIQMTQSPSSLSASVGDRVTITCRTSQDINIYLNWYQQKPGKAPKLLIYYRSGLLSGVPSRFSGSGSGTDFTLTISSLQPEDFATYYCQQGNTLPPTFGGGTKVEIKR
EC50 [1]: 1.95 nM
EC50 [2]: 5.18 nM

B10: Hu63-1 (antibody, human IgG1, kappa, V domains shown)
VH: EVQLVQSGAEVKKPGASVKVSCKASGYTFTDFYMNWVRQAPGQGLEWMGDIFPKNGNTDYNRKFKDRVTMTRDTSTSTVYMELSSLRSEDTAVYYCARSGYGNYVFDYWGQGTLVTVSS
VL: DIQMTQSPSSLSASVGDRVTITCRTSQDINIYLNWYQQKPGKAPKLLIYYRSGLLSGVPSRFSGSGSGTDFTLTISSLQPEDFATYYCQQGNTLPPTFGGGTKVEIKR
EC50 [2]: 4.23 nM

B11: Hu63-8 (antibody, human IgG1, kappa, V domains shown)
VH: EVQLVQSGAEVKKPGASVKVSCKASGYTFTDFYMNWVRQAPGQGLEWIGDIFPKNGNTDYNRKFKDRATLTVDKSTSTVYMEFSSLRSEDTAVYYCARSGYGNYVFDYWGQGTLVTVSS
VL: DVQMTQSPSSLSASVGDRVTITCRTSQDINIYLNWYQQKPGKAPKLLIYYRSGLLSGVPSRFSGSGSGTDYTLTISSLQPEDFATYYCQQGNTLPPTFGGGTKVEIKR
EC50 [1]: 2.43 nM
EC50 [2]: 3.24 nM

B12: Hu103-11 (antibody, human IgG1, lambda)
heavy: not shown
light: ELVLTQSPSASASLGASVKLTCTLSSQHSTYTIEWYQQQPEKGPRYVMELKKDGSHSTGDGIPDRFSGSSSGAERYLTISSLQSEDEADYYCGVGNTIKEQFVYVFGGGTKLTVLGQPKANPTVTLFPPSSEELQANKATLVCLISDFYPGAVTVAWKADGSPVKAGVETTKPSKQSNNKYAASSYLSLTPEQWKSHRSYSCQVTHEGSTVEKTVAPTECS
EC50 [1]: 0.92 nM
EC50 [2]: 2.71 nM

B13: Hu103-2 (antibody, human IgG1, lambda, V domains shown)
VH: EVQLVQSGSELKKPGASVKVSCKASGYTFTTYGVIWVRQAPGQGLEWMGWINTYSGVPTYADDFKGRFVFSLDTSVSTAYLQISSLKAEDTAVYYCARKKTLTTVTPWFAYWGQGTLVTVSS
VL: ELVLTQSPSASASLGASVKLTCTLSSQHSTYTIEWYQQQPEKGPRYLMELKKDGSHSTGDGIPDRFSGSSSGAERYLTISSLQSEDEADYYCGVGNTIKEQFVYVFGGGTKLTVLG
EC50 [1]: 1.26 nM
EC50 [2]: 2.18 nM

B14: Hu103-3 (antibody, human IgG1, lambda)
heavy: not shown
light: ELVLTQSPSASASLGASVKLTCTLSSQHSTYTIEWYQQQPEKGPRYVMELKKDGSHSTGDGIPDRFSGSSSGAERYLTISSLQSEDEADYYCGVGNTIKEQFVYVFGGGTKLTVLGQPKANPTVTLFPPSSEELQANKATLVCLISDFYPGAVTVAWKADGSPVKAGVETTKPSKQSNNKYAASSYLSLTPEQWKSHRSYSCQVTHEGSTVEKTVAPTECS
EC50 [1]: 1.18 nM
EC50 [2]: 1.91 nM

B15: Hu103-1 (antibody, human IgG1, lambda, V domains shown)
VH: EVQLVQSGSELKKPGASVKVSCKASGYTFTTYGVIWVRQAPGQGLEWMGWINTYSGVPTYADDFKGRFVFSLDTSVSTAYLQISSLKAEDTAVYYCARKKTLTTVTPWFAYWGQGTLVTVSS
VL: ELVLTQSPSASASLGASVKLTCTLSSQHSTYTIEWHQQQPEKGPRYLMELKKDGSHSTGDGIPDRFSGSSSGAERYLTISSLQSEDEADYYCGVGNTIKEQFVYVFGGGTKLTVLG
EC50 [1]: 2.49 nM
EC50 [2]: 2.37 nM
